Laboratory results published in IntAct's records for PubMed 31696227.

B1: Transcription factor ATOH7 (Homo sapiens), Q8N100 (parent)
chain: MKSCKPSGPPAGARVAPPCAGGTECAGTCAGAGRLESAARRRLAANARERRRMQGLNTAFDRLRRVVPQWGQDKKLSKYETLQMALSYIMALTRILAEAERFGSERDWVGLHCEHFGRDHYLPFPGAKLPGESELYSQRLFGFQPEPFQMAT
partner: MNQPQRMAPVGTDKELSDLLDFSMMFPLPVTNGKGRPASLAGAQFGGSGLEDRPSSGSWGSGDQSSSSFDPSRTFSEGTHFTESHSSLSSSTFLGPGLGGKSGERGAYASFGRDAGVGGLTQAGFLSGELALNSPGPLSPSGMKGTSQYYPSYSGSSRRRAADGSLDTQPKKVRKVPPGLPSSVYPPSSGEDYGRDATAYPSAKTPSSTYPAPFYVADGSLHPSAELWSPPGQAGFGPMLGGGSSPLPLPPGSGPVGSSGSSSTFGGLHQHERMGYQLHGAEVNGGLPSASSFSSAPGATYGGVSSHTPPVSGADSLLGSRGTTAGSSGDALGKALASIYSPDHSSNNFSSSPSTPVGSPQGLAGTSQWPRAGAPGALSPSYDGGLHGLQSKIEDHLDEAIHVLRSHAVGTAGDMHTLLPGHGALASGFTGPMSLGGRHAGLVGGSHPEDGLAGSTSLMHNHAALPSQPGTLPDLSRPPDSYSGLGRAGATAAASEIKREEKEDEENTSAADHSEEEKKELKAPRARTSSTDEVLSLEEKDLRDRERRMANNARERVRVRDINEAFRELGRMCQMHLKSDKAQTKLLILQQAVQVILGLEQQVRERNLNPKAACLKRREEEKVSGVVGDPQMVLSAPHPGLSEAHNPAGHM

Variants of: B1
Details: with TCF3, P15923-2

Row | Variant | effect of a mutation on the interaction
1 | MKSCKPSGPPAGARVAPPCAGGTECAGTCAGAGRLESAARRRLAAHARERRRMQGLNTAFDRLRRVVPQWGQDKKLSKYETLQMALSYIMALTRILAEAERFGSERDWVGLHCEHFGRDHYLPFPGAKLPGESELYSQRLFGFQPEPFQMAT | disrupting interaction strength
2 | MKSCKPSGPPAGARVAPPCAGGTECAGTCAGAGRLESAARRRLAANARERRRMQGLNTGFDRLRRVVPQWGQDKKLSKYETLQMALSYIMALTRILAEAERFGSERDWVGLHCEHFGRDHYLPFPGAKLPGESELYSQRLFGFQPEPFQMAT | decreasing interaction strength
3 | MKSCKPSGPPAGARVAPPCAGGTECAGTCAGAGRLESAARRRLAANARERRRMQGLNTTFDRLRRVVPQWGQDKKLSKYETLQMALSYIMALTRILAEAERFGSERDWVGLHCEHFGRDHYLPFPGAKLPGESELYSQRLFGFQPEPFQMAT | disrupting interaction strength
4 | MKSCKPSGPPAGARVAPPCAGGTECAGTCAGAGRLESAARRRLAANARERRRMQGLNTVFDRLRRVVPQWGQDKKLSKYETLQMALSYIMALTRILAEAERFGSERDWVGLHCEHFGRDHYLPFPGAKLPGESELYSQRLFGFQPEPFQMAT | disrupting interaction strength
